The target of the assay is T1, human CDH6 with EC3 removed, on HEK293T cells (HEK293T-hCDH6-EC3 deletion) (human, UniProt P55285 54-790).
T1 construct: Signal peptide not removed here
T1 sequence: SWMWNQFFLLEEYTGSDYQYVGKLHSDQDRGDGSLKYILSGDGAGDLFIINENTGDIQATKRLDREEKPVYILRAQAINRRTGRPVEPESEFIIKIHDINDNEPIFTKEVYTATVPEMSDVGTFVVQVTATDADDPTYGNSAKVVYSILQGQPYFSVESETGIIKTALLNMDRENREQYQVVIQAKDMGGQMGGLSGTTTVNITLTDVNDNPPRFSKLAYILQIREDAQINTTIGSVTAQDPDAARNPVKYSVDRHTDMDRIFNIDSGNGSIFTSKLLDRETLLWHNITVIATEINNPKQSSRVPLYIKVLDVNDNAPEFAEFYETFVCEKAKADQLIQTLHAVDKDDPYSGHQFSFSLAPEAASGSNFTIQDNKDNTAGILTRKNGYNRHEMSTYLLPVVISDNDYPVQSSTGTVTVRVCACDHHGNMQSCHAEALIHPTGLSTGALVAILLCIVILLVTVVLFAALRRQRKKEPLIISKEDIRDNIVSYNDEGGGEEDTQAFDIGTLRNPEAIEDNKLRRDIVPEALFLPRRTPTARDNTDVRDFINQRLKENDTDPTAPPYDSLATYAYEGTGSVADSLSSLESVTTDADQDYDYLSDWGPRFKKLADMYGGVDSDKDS
Kind of assay: FACS, HEK293T-hCDH6-EC3 deletion cells. Background: In flow cytometry, cells or beads pass a laser one at a time.

Consider one molecule from patent US20260234242A1 (HAINAN SIMCERE ZAIMING PHARMACEUTICAL, published 2026).

B1: CHI-CDH6-12 (antibody, human IgG1, kappa, V domains shown)
VH: EVNLVESGGGLVQPGDSLTLSCSASGFTFTDYYMSWVRQFPGKALEWLALIRNKANSYTTEYSASVKGRFTISRDNSQSILYLQMNALRAEDSATYYCARDSYYSHDGFAYWGQGTLVTVSA
VL: DIVLTQSPASLAVSLGQRATISCRASKSVSTSSYTYMHWYQQKPGQPPKLLIKFASYLESGVPARFSGSGSGTDFTLNIHPVEEEDAATYYCQHSREFPFTFGTGTKLEIKR
notes: also called CH1-CDH6-12; chimeric antibody of murine CDH6-12
B1: the binding result was “no binding”.
